From PMC12174348 (Nature Communications, 2025)

Biological target: human NMDAR (GluN1 and GluN2B subunits) on HEK293 cells (Homo sapiens, UniProt Q05586;Q13224)
Assay: cell-based or functional assay

in vitro pathogenicity (NMDAR internalization) of 502 Ab, EC50; the sentence may also mean its binding: 0.021 µg/mL
B1: reference pathogenic anti-NMDAR autoantibody 502 Ab (antibody, V domains shown)
VH: QVQLQESGPGLVKPSQTLSLTCSVTGYSITSDYYWHWIRQPPGKGLEWIAYIRYDGRNDSNPSLKNRVTISRDTSKNQFSLKLSSVTAADTAVYYCAREDYASSSFDYWGQGTLVTVSS
VL: DIQMTQSPSSLSASVGDRVTITCRPSENIYSNLAWYQQKPGKAPKLLVYAATNLADGVPSRFSGSGSGTDYTLTISSLQPEDIATYYCQHFWDSPPTFGQGTKLEIK
